Experimental data from the supplement of paper PMC7125110.
± gives the standard error. For part of these data: This sample holds only a part of the variants without activity.

B1: glmS ribozyme (parent)
chain: AUAAAAGCGCCAGAACUACAGAAAUGUAGUUGACGAGGAGGAGGUUUAUCGAAUUUUCGGCGGAUGCCUCCAAA

Legend:
Conditions in all cases: with glucosamine-6-phosphate
[1] = variants of: B1; assay: kcat; higher = faster cleavage; RNA array
How it was run: (§1)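 Glucosamine-6-phosphate in HEPES/KCl/Mg(OAc)2 buffer, at 40 μM to 10 mM, was flowed over barcoded ribozyme variants transcribed in situ by E. coli RNA polymerase on sequenced MiSeq chips. Tracking was through a hybridised Cy3 probe at 37 °C. kobs, kcat and KM came from exponential decay fits and weighted Michaelis–Menten fits of normalised per-tile medians.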

[2] = variants of: B1; assay: self-cleavage kobs at 160 uM GlcN6P; higher = faster cleavage; RNA array
How it was run: as §1

[3] = variants of: B1; assay: self-cleavage kobs at 640 uM GlcN6P; higher = faster cleavage; RNA array
How it was run: as §1

[4] = variants of: B1; assay: KM; higher = weaker cofactor use; RNA array
How it was run: as §1

[5] = variants of: B1; assay: self-cleavage kobs at 2500 uM GlcN6P; higher = faster cleavage; RNA array
How it was run: as §1

[6] = variants of: B1; assay: self-cleavage kobs at 10000 uM GlcN6P; higher = faster cleavage; RNA array
How it was run: as §1

[7] = variants of: B1; assay: self-cleavage kobs at 40 uM GlcN6P; higher = faster cleavage; RNA array
How it was run: as §1

Row | Variant | kcat [1] [s⁻¹] | self-cleavage kobs at 160 uM GlcN6P [2] [s⁻¹] | self-cleavage kobs at 640 uM GlcN6P [3] [s⁻¹] | KM [4] [µM] | self-cleavage kobs at 2500 uM GlcN6P [5] [s⁻¹] | self-cleavage kobs at 10000 uM GlcN6P [6] [s⁻¹] | self-cleavage kobs at 40 uM GlcN6P [7] [s⁻¹]
1 | C58U G66C | < 1e-05 | < 1e-05 | < 1e-05 |  |  |  | 
2 | A6C A39G | 6.38e-05 ± 7.8e-07 |  |  | 439 ± 33 | 5.42e-05 ± 1.9e-05 | 6.11e-05 ± 1.4e-05 | 
3 | G13C U31C G32U U65G C67U | 6.88e-05 ± 4.5e-06 |  |  | 3040 ± 640 |  | 5.26e-05 ± 1.4e-05 | 
4 | C58G | 0.000194 ± 8.4e-06 | 1.37e-05 ± 2.9e-06 | 3.47e-05 ± 1.2e-06 | 3180 ± 300 | 8.3e-05 ± 1.6e-06 | 0.000149 ± 2.3e-06 | 
5 | A12U U57C | 0.00174 ± 0.00086 | 6.12e-05 ± 2.3e-05 | 0.000217 ± 3.9e-05 |  | 0.000638 ± 0.00014 | 0.00126 ± 0.00038 | 6.27e-05 ± 2.3e-05
6 | U31C U47A | 0.00379 ± 0.00061 | 0.000354 ± 7.7e-05 | 0.00107 ± 0.00022 | 1800 ± 460 | 0.00178 ± 0.00031 | 0.00367 ± 0.00049 | 8.24e-05 ± 1.4e-05
7 | G21U | 0.0659 ± 0.016 | 0.00351 ± 0.00055 | 0.0147 ± 0.0015 | 2090 ± 600 | 0.0337 ± 0.0063 | 0.059 ± 0.0083 | 0.00136 ± 8.6e-05
8 | A15G C58G | 0.00042 ± 0.00013 |  |  |  | 8.41e-05 ± 1.3e-05 | 0.000197 ± 6.1e-05 | 
9 | U56G C67G | 0.000876 ± 9.7e-05 | 9.74e-05 ± 8.1e-06 | 0.00028 ± 2.1e-05 | 1260 ± 220 | 0.000582 ± 5.1e-05 | 0.00081 ± 7.6e-05 | 3.84e-05 ± 5.8e-06
10 | A33U G66C | 1.44e-05 ± 2.1e-06 |  |  | 3040 ± 1500 |  |  | 
11 | C34A G51U | 0.000727 ± 0.00012 |  | 0.000141 ± 3e-05 | 3280 ± 1200 | 0.000354 ± 6.1e-05 | 0.000537 ± 4.9e-05 | 
12 | G66C C70A | 8.82e-05 ± 1.9e-05 | 8.3e-05 ± 3e-05 | 4.17e-05 ± 1.3e-05 |  | 6.82e-05 ± 1.2e-05 | 9e-05 ± 1.4e-05 | 
13 | U46A C71U | 0.00396 ± 0.00074 | 0.000232 ± 6.3e-05 | 0.000874 ± 0.00015 | 2020 ± 580 | 0.00353 ± 0.00069 | 0.00319 ± 0.00037 | 8.79e-05 ± 1.3e-05
14 | C11A G40U | 1.13e-05 ± 2e-06 | < 1e-05 | < 1e-05 |  |  |  | 
15 | A42C U69C | 0.000251 ± 7e-05 |  | 0.000126 ± 2.7e-05 |  | 0.000165 ± 6.2e-05 | 0.000346 ± 0.00013 | 
